# In article PMC4641155 (Molecular Imaging and Biology, 2015):
# Values joined by “and” are separate entries in the source; they are usually repeats but may differ in a detail not shown here. Equal entries are not always repeated. Where two headings read alike, the source gives them in different places.
# Legend:
# [1] = tested on: caspase-3/7; details: cited from earlier work
# Text: Molecular imaging of cell death has gained interest in oncology for monitoring tumor response to cancer therapy. Radiolabeled annexin-V was the first cell death-specific probe to be evaluated clinically. The exposure of membrane aminophospholipids such as PS and PE in the extracellular milieu provides surrogate markers for detecting cell death. PE presents one of the most abundant targets in the membrane bilayer, only preceded by phosphatidylcholine. […] Other ...
# [2] = cited from earlier work
# [3] = tested on: COLO205 tumors; assay: Ex vivo histology of tumors: cleaved caspase-3 and TUNEL; assay type: in vivo, nude mice; details: irinotecan-treated tumors; three whole sections, ×400; n = 6; mean ± SEM
# [4] = tested on: COLO205 cells; assay: Muse Annexin V & Dead Cell and Caspase 3/7 assays in irinotecan-treated cells; assay type: cell-based, human
# [5] = tested on: COLO205 tumors
# [6] = Human residence time estimates scaled from mouse μSPECT time-activity curves; assay type: in vivo, human (extrapolated from mouse); details: scaled from mouse μSPECT TACs, n = 3 non-purified, n = 6 purified
# Text: (§1) Volumes of interest (VOIs) were manually drawn on the μSPECT-CT images using PMOD v3.3 (PMOD Technologies, Switzerland) to delineate the regions with distinct SPECT time-activity pattern: heart, liver, kidney, and urinary bladder, as well as whole-body. The average organ activity per volume was obtained from the co-registered μSPECT images and the non-decay corrected time activity curves (TACs) were extracted for each target organ. In order to relate the scanner units (counts/pixel) to radioactivity concentration (kilobecquerel per cubic centimeter), a scanner calibration factor was estimated by scanning a syringe with a known concentration of Tc-99m. TACs for each organ, as well as the TACs representing the activity in the remainder of the body, were fitted by a single exponential decaying function, which was then integrated to obtain the total number of disintegrations (residence time) within these regions. In order to predict human dosimetry using animal data, interspecies extrapolation is necessary. Thus, the residence times (R) were scaled to human values according to the following formula [21]: R/gorganmouse⋅kgTBweightmouse⋅gorgan/kgTBweighthuman=Rhuman
# (§2) The human organ and body weight values from the standard adult male phantom taken into account are implemented in the internal dosimetry software (OLINDA/EXM v1.1) and are assumed to be constant across individuals. The body weight and organ masses for the individual mice were obtained post-mortem. For the bladder model, the fraction leaving the body via the urinary excretion system (f) and the biological half-life of the excretion (t1/2) were estimated by fitting a first-order linear system to the sum of activity in the bladder and the activity that had been excreted (calculated as total injected activity minus total body activity): y=f1−expln2/t1/2t
# [7] = Projected human organ absorbed doses and effective dose (OLINDA/EXM); assay type: in vivo, human (extrapolated from mouse); details: OLINDA/EXM v1.1, adult male model, 2-h voiding, from mouse data
# Text: as §1, §2
# Projected human absorbed doses to various organs and the effective doses (ED) were then computed using the aforementioned dosimetry software (weighting factors from International Commission on Radiological Protection 60), with the human residence times as input, using the standard adult male model and the dynamic voiding bladder model (2-h voiding interval).
# [8] = Bladder model fit of urinary excretion; assay type: in vivo, CD1−/− nude female mice; details: first-order fit of bladder plus excreted activity
# Text: as §2
# [9] = Dynamic/static whole-body μSPECT-CT biodistribution in healthy mice; assay type: in vivo; details: female, CD1−/− nude, mouse, kidney, iv, 37 MBq, total radioactivity, 37 MBq i.v., 4 h p.i., mean ± SEM, n = 3 non-purified, n = 6 purified, read-out: renal activity (renal excretion)
# [10] = In vivo tumor uptake by μSPECT-CT in COLO205 tumor-bearing mice; design: species or system nude mice; details: female, nude, mouse, bone marrow (lumbar vertebrae and sacrum), iv, 37 MBq, total radioactivity, lumbar vertebrae and sacrum, μSPECT 4 h p.i., 37 MBq i.v.
# Method: Irinotecan was administered by intra-peritoneal (i.p.) injection (80 mg/kg) three times in 1 week every other day (n = 3).
compound,measurement,setting,value
O=C1C(=O)N(Cc2cn(CC[18F])nn2)c2ccc(S(=O)(=O)N3CCCC3COc3ccc(F)cc3F)cc21 (stereo not drawn) [[^18F]ICMT11],binding affinity for caspase-3/7,[1],nanomolar
same,mean effective dose,[2],0.025 mSv/MBq
"[^99mTc]HYNIC-annexin V: radiolabeled human recombinant annexin V, apoptosis imaging agent",mean effective dose,[2]; in vivo,0.011 mSv/MBq
CCc1c2c(nc3ccc(OC(=O)N4CCC(N5CCCCC5)CC4)cc13)-c1cc3c(c(=O)n1C2)COC(=O)[C@]3(O)CC [irinotecan],number of CC3-positive cells,[3],9.5 ± 1.1
same,number of TUNEL-positive cells,[3],10.5 ± 1.6
same,level of cell necrosis,"[4]; irinotecan 0.43, 4.3, 43 μM, 40 h, Muse assays",did not result in an increased level of cell necrosis
same,apoptosis levels,"[4]; irinotecan treatment 40 h, annexin-V binding and effector caspase activation",increase in apoptosis levels
same,overall toxicity with respect to body weight loss,"[5]; 80 mg/kg irinotecan, data not shown",No overall toxicity
same,BLI signal change after treatment,"[5]; bioluminescence imaging after vs before treatment, irinotecan 80 mg/kg i.p.",0.75 ± 0.28
same,tumor growth inhibition,"[5]; day 5, irinotecan 80 mg/kg i.p. three times in 1 week, vs vehicle",34.4 ± 6.9%
CC(C)[C@@H]1NC(=O)[C@H](Cc2ccccc2)NC(=O)[C@@H]2NC(=O)[C@H](Cc3ccccc3)NC(=O)[C@@H]3CCCN3C(=O)CNC(=O)[C@H](Cc3ccccc3)NC(=O)[C@@H]3CNCCCC[C@@H](C(=O)O)NC(=O)[C@@H]4NC(=O)[C@H](CC(N)=O)NC(=O)CNC(=O)[C@H]([C@@H](O)C(=O)O)NC(=O)[C@H](CSC[C@@H](NC(=O)[C@H](CCC(N)=O)NC(=O)[C@H](CCCCNC(=O)c5ccc(NN)nc5)NC(=O)[C@@H](N)CS[C@H]4C)C(=O)N[C@@H](CS[C@H]2C)C(=O)N3)NC1=O [non-purified [^99mTc]duramycin] [metal not drawn],"Mean human residence time, heart contents",[6],0.0244 h
same,"Mean human residence time, kidneys",[6],0.13 h
same,"Mean human residence time, liver",[6],1.02 h
same,"Mean human residence time, remaining body",[6],3.41 h
same,"Mean human residence time, urinary bladder contents",[6],0.369 h
same,"Mean human absorbed dose, total body",[7],2.52 × 10^−3 mGy/MBq
same,"Mean human organ absorbed dose, LLI wall",[7],3.01 × 10^−3 mGy/MBq
same,"Mean human organ absorbed dose, ULI wall",[7],3.10 × 10^−3 mGy/MBq
same,"Mean human organ absorbed dose, adrenals",[7],3.90 × 10^−3 mGy/MBq
same,"Mean human organ absorbed dose, brain",[7],1.54 × 10^−3 mGy/MBq
same,"Mean human organ absorbed dose, breasts",[7],1.51 × 10^−3 mGy/MBq
same,"Mean human organ absorbed dose, gallbladder wall",[7],5.38 × 10^−3 mGy/MBq
same,"Mean human organ absorbed dose, heart wall",[7],3.12 × 10^−3 mGy/MBq
same,"Mean human organ absorbed dose, kidneys",[7],8.45 × 10^−3 mGy/MBq
same,"Mean human organ absorbed dose, liver",[7],1.27 × 10^−2 ± 5.97 × 10^−3 mGy/MBq and 1.27 × 10 ^−2 mGy/MBq
same,"Mean human organ absorbed dose, lungs",[7],2.52 × 10^−3 mGy/MBq
same,"Mean human organ absorbed dose, muscle",[7],2.12 × 10^−3 mGy/MBq
same,"Mean human organ absorbed dose, osteogenic cells",[7],5.51 × 10^−3 mGy/MBq
same,"Mean human organ absorbed dose, ovaries",[7],3.15 × 10^−3 mGy/MBq
same,"Mean human organ absorbed dose, pancreas",[7],3.79 × 10^−3 mGy/MBq
same,"Mean human organ absorbed dose, red marrow",[7],2.16 × 10^−3 mGy/MBq
same,"Mean human organ absorbed dose, skin",[7],1.34 × 10^−3 mGy/MBq
same,"Mean human organ absorbed dose, small intestine",[7],3.01 × 10^−3 mGy/MBq
same,"Mean human organ absorbed dose, spleen",[7],2.48 × 10^−3 mGy/MBq
same,"Mean human organ absorbed dose, stomach wall",[7],2.63 × 10^−3 mGy/MBq
same,"Mean human organ absorbed dose, testes",[7],2.11 × 10^−3 mGy/MBq
same,"Mean human organ absorbed dose, thymus",[7],2.03 × 10^−3 mGy/MBq
same,"Mean human organ absorbed dose, thyroid",[7],1.87 × 10^−3 mGy/MBq
same,"Mean human organ absorbed dose, urinary bladder wall",[7],1.66 × 10^−2 ± 4.55 × 10^−3 mGy/MBq and 1.66 × 10 ^−2 mGy/MBq
same,"Mean human organ absorbed dose, uterus",[7],4.05 × 10^−3 mGy/MBq
same,"f, mean fraction leaving the body via the urinary excretion system",[8],0.519
same,"t 1/2, mean biological half-life of the excretion",[8],2.950 h
"CC(C)[C@@H]1NC(=O)[C@H](Cc2ccccc2)NC(=O)[C@@H]2NC(=O)[C@H](Cc3ccccc3)NC(=O)[C@@H]3CCCN3C(=O)CNC(=O)[C@H](Cc3ccccc3)NC(=O)[C@@H]3CNCCCC[C@@H](C(=O)O)NC(=O)[C@@H]4NC(=O)[C@H](CC(N)=O)NC(=O)CNC(=O)[C@H]([C@@H](O)C(=O)O)NC(=O)[C@H](CSC[C@@H](NC(=O)[C@H](CCC(N)=O)NC(=O)[C@H](CCCCNC(=O)c5ccc(NN)nc5)NC(=O)[C@@H](N)CS[C@H]4C)C(=O)N[C@@H](CS[C@H]2C)C(=O)N3)NC1=O [purified [^99mTc]duramycin, metal not drawn]",tissue uptake per volume at 4 h,[9],6.82 ± 0.41 %ID/mL
same,SUV at 4 h,[10]; irinotecan-treated mice,0.12 ± 0.02 SUV
same,SUV at 4 h,[10]; vehicle-treated mice,0.11 ± 0.01 SUV
